Ends that are not written are not given here.
T1: ASCC2^1-434 (human, UniProt Q9H1I8 1-434)
T1 chain: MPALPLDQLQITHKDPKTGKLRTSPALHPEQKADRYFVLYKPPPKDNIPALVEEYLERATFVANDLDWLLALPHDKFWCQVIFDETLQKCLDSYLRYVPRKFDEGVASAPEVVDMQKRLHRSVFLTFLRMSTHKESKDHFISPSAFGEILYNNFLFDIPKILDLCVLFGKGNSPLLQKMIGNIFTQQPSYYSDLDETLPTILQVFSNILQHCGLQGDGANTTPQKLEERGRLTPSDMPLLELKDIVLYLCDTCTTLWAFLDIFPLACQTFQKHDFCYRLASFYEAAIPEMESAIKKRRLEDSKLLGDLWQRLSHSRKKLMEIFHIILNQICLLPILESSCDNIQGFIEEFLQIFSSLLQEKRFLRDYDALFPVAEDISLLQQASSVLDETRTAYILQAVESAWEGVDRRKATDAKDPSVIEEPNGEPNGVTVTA

T2: ASCC3^1-22 peptide R5L (human, UniProt Q8N3C0 1-22, R5L, C-terminal amination)
T2 construct: ASCC3, human, N-terminal 22 residues with the somatic cancer substitution R5L; source: synthetic peptide (GL biochem)
T2 peptide (looked up): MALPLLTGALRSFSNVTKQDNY

T3: ASCC3^1-22 peptide R5G (human, UniProt Q8N3C0 1-22, R5G, C-terminal amination)
T3 construct: ASCC3, human, N-terminal 22 residues with the somatic cancer substitution R5G; source: synthetic peptide (GL biochem)
T3 peptide (looked up): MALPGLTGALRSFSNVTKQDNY

T4: ASCC3^1-22 peptide R5H (human, UniProt Q8N3C0 1-22, R5H, C-terminal amination)
T4 construct: ASCC3, human, N-terminal 22 residues with the somatic cancer substitution R5H; source: synthetic peptide (GL biochem)
T4 peptide (looked up): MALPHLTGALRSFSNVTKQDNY

T5: ASCC3^1-22 peptide R5C (human, UniProt Q8N3C0 1-22, R5C, C-terminal amination)
T5 construct: ASCC3, human, N-terminal 22 residues with the somatic cancer substitution R5C; source: synthetic peptide (GL biochem)
T5 peptide (looked up): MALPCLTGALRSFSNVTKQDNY

T6: Full-length ASCC2 (ASCC2^FL) (human, UniProt Q9H1I8 1-757)
T6 construct: from a synthetic gene (GeneArt); TEV-cleavable tag; source: insect cells (High Five), recombinant, purified (Ni-NTA, SEC); not shown: His10, N-terminal, cleaved
T6 sequence (looked up): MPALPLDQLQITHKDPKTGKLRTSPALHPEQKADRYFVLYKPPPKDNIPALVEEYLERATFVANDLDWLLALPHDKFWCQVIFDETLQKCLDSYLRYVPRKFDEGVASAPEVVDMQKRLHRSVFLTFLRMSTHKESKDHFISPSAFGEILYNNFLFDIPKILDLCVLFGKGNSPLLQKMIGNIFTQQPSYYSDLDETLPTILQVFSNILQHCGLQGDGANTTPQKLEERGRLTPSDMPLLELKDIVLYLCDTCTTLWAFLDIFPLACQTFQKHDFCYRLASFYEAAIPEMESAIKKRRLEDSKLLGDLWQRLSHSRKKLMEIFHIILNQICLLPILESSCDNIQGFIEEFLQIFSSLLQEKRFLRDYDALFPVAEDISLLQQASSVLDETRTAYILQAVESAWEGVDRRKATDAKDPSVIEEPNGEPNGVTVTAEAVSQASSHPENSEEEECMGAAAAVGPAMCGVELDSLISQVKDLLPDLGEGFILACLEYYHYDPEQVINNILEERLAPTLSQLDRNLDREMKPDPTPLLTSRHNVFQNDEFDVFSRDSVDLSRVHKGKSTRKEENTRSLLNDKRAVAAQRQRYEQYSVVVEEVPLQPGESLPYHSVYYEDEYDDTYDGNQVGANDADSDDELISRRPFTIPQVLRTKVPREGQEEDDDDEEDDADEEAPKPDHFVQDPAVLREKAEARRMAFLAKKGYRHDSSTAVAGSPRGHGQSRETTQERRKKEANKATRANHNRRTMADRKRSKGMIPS

T7: ASCC2^1-434, elastase fragment of ASCC2^FL (human, UniProt Q9H1I8 1-434)
T7 construct: Proteolytic fragment; also called approximately 50 kDa fragment of ASCC2; source: elastase digestion of the purified ASCC2^FL-ASCC3^NTR complex (proteins from insect cells); not shown: His10, N-terminal, cleaved
T7 sequence (looked up): T1 chain

T8: Seleno-methionine (SeMet)-derivatized ASCC2^1-434 (human, UniProt Q9H1I8 1-434, seleno-methionine (SeMet) in place of methionine)
T8 construct: Unmodified complex (co-produced in High Five cells) was crystallized too; the structure was solved by SAD with the SeMet complex; source: E. coli BL21 (DE3), PASM-5052 medium with SeMet, purified (Ni-NTA, SEC); not shown: His6, N-terminal, cleaved
T8 sequence (looked up): T1 chain

B1: ASCC3^1-22 peptide R5L (peptide)
peptide: MALPLLTGALRSFSNVTKQDNY-NH2
B2: ASCC3^16-197 (domain or fragment, human, UniProt Q8N3C0 16-197, looked up)
chain: VTKQDNYNEEVADLKIKRSKLHEQVLDLGLTWKKIIKFLNEKLEKSKMQSINEDLKDILHAAKQIVGTDNGREAIESGAAFLFMTFHLKDSVGHKETKAIKQMFGPFPSSSATAACNATNRIISHFSQDDLTALVQMTEKEHGDRVFFGKNLAFSFDMHDLDHFDELPINGETQKTISLDYK
notes: also called partial N-arm deletion variant; source: E. coli BL21 (DE3), purified (Ni-NTA, SEC); not shown: His6, N-terminal, cleaved
B3: ASCC3^1-22 peptide R5G (peptide)
peptide: MALPGLTGALRSFSNVTKQDNY-NH2
B4: ASCC2^1-434 (domain or fragment, human, UniProt Q9H1I8 1-434, looked up)
chain: T1 chain
notes: source: E. coli BL21 (DE3), purified (Ni-NTA, SEC); not shown: His6, N-terminal, cleaved
B5: ASCC3^1-161 (domain or fragment, human, UniProt Q8N3C0 1-161, looked up)
chain: MALPRLTGALRSFSNVTKQDNYNEEVADLKIKRSKLHEQVLDLGLTWKKIIKFLNEKLEKSKMQSINEDLKDILHAAKQIVGTDNGREAIESGAAFLFMTFHLKDSVGHKETKAIKQMFGPFPSSSATAACNATNRIISHFSQDDLTALVQMTEKEHGDRV
notes: ASCC3, human, residues 1-161 (lacks the C-arm); source: E. coli BL21 (DE3), purified (Ni-NTA, SEC); not shown: His6, N-terminal, cleaved
B6: ASCC3^1-22 peptide R5C (peptide)
peptide: MALPCLTGALRSFSNVTKQDNY-NH2
B7: ASCC3^1-197 (domain or fragment, human, UniProt Q8N3C0 1-197, looked up)
chain: MALPRLTGALRSFSNVTKQDNYNEEVADLKIKRSKLHEQVLDLGLTWKKIIKFLNEKLEKSKMQSINEDLKDILHAAKQIVGTDNGREAIESGAAFLFMTFHLKDSVGHKETKAIKQMFGPFPSSSATAACNATNRIISHFSQDDLTALVQMTEKEHGDRVFFGKNLAFSFDMHDLDHFDELPINGETQKTISLDYK
notes: as for B4
B8: ASCC3 N-terminal region (ASCC3^NTR; residues 1-400) (domain or fragment, human, UniProt Q8N3C0 1-400, looked up)
chain: MALPRLTGALRSFSNVTKQDNYNEEVADLKIKRSKLHEQVLDLGLTWKKIIKFLNEKLEKSKMQSINEDLKDILHAAKQIVGTDNGREAIESGAAFLFMTFHLKDSVGHKETKAIKQMFGPFPSSSATAACNATNRIISHFSQDDLTALVQMTEKEHGDRVFFGKNLAFSFDMHDLDHFDELPINGETQKTISLDYKKFLNEHLQEACTPELKPVEKTNGSFLWCEVEKYLNSTLKEMTEVPRVEDLCCTLYDMLASIKSGDELQDELFELLGPEGLELIEKLLQNRITIVDRFLNSSNDHRFQALQDNCKKILGENAKPNYGCQVTIQSEQEKQLMKQYRREEKRIARREKKAGEDLEVSEGLMCFDPKELRIQREQALLNARSVPILSRQRDADVEKI
notes: ASCC3, human, N-terminal region, residues 1-400; The results say insect cells; source: insect cells, recombinant, purified (Ni-NTA; SEC step omitted); not shown: His10, N-terminal, cleaved
B9: ASCC3^1-22 peptide R5H (peptide)
peptide: MALPHLTGALRSFSNVTKQDNY-NH2
B10: ASCC3^1-207, elastase fragment of ASCC3^NTR (domain or fragment, human, UniProt Q8N3C0 1-207, looked up)
chain: MALPRLTGALRSFSNVTKQDNYNEEVADLKIKRSKLHEQVLDLGLTWKKIIKFLNEKLEKSKMQSINEDLKDILHAAKQIVGTDNGREAIESGAAFLFMTFHLKDSVGHKETKAIKQMFGPFPSSSATAACNATNRIISHFSQDDLTALVQMTEKEHGDRVFFGKNLAFSFDMHDLDHFDELPINGETQKTISLDYKKFLNEHLQEA
notes: ASCC3, human, N-terminal 207 residues, mapped by mass spectrometric fingerprinting; Proteolytic fragment; also called N-terminal, 207-residue fragment of ASCC3; source: elastase digestion of the purified ASCC2^FL-ASCC3^NTR complex (proteins from insect cells); not shown: His10, N-terminal, cleaved
B11: ASCC3^1-207 (domain or fragment, human, UniProt Q8N3C0 1-207, looked up)
chain: B10 chain
notes: ASCC3, human, residues 1-207; residues 1-186 traced in the model; source: insect cells, recombinant, purified (Ni-NTA, SEC); not shown: His10, N-terminal, cleaved
B12: ASCC3^1-22 peptide, wild type (peptide, UniProt Q8N3C0 1-22, looked up)
peptide: MALPRLTGALRSFSNVTKQDNY-NH2
notes: ASCC3, human, N-terminal 22 residues; also called WT ASCC3^1-22; source: synthetic peptide (GL biochem)

Experiments:
ASCC2^1-434 [1] = molecular target: T1, ASCC2^1-434; experiment: ITC
ASCC2^1-434 [2] = molecular target: B4; experiment: ITC; iTC200; ASCC3 variant (10 µM) in the sample cell, ASCC2 variant (100 µM) in the syringe; 20 mM HEPES-NaOH, pH 7.5, 100 mM NaCl; 25 °C; stoichiometry fixed to 1; conditions: both partners purified
ASCC3^1-22 peptide R5L = molecular target: T2, ASCC3^1-22 peptide R5L; experiment: ITC; iTC200; ASCC3^1-22 peptide (10-15 µM) in the sample cell, ASCC2^1-434 (200 µM or 400 µM) in the syringe; 20 mM HEPES-NaOH, pH 7.5, 100 mM NaCl; 25 °C; stoichiometry fixed to 1; conditions: both partners purified
ASCC3^1-22 peptide R5G = molecular target: T3, ASCC3^1-22 peptide R5G; experiment: as above; conditions: both partners purified
ASCC3^1-22 peptide R5H = molecular target: T4, ASCC3^1-22 peptide R5H; experiment: as above; conditions: both partners purified
ASCC3^1-22 peptide R5C = molecular target: T5, ASCC3^1-22 peptide R5C; experiment: as above; conditions: both partners purified
[3] = molecular target: T6, Full-length ASCC2 (ASCC2^FL); experiment: ITC; iTC200; ASCC3 variant (10 µM) in the sample cell, ASCC2 variant (100 µM) in the syringe; 20 mM HEPES-NaOH, pH 7.5, 100 mM NaCl; 25 °C; stoichiometry fixed to 1; conditions: both partners purified
[4] = molecular target: T7, ASCC2^1-434, elastase fragment of …; experiment: SEC; SEC of the fragments left after elastase digestion of the ASCC2^FL-ASCC3^NTR complex; conditions: both partners purified
[5] = molecular target: T8, Seleno-methionine (SeMet)-derivatized …; experiment: crystal structure; SeMet SAD, 2.7 Å; complex reconstituted by SEC from SeMet ASCC2^1-434 (E. coli) and ASCC3^1-207 (insect cells); hanging drop, 4 °C, 0.1 M MES-NaOH, pH 6.5; conditions: both partners purified
ASCC2^1-434 [6] = molecular target: B4; experiment: ITC; iTC200; ASCC3^1-22 peptide (10-15 µM) in the sample cell, ASCC2^1-434 (200 µM or 400 µM) in the syringe; 20 mM HEPES-NaOH, pH 7.5, 100 mM NaCl; 25 °C; stoichiometry fixed to 1; conditions: both partners purified

B1
Kd (ASCC2^1-434 [1]): 15400 nM

B2
Kd (ASCC2^1-434 [2]): 483 nM

B3
Kd (ASCC2^1-434 [1]): 21600 nM

B4
fold weaker interaction than with WT ASCC3^1-22 (ASCC3^1-22 peptide R5L): ~8 fold | fold weaker interaction than with WT ASCC3^1-22 (ASCC3^1-22 peptide R5G): ~11 fold | fold reduced affinity compared to WT ASCC3^1-22 (ASCC3^1-22 peptide R5H): > 20 fold | fold reduced affinity compared to WT ASCC3^1-22 (ASCC3^1-22 peptide R5C): > 20 fold

B5
Kd (ASCC2^1-434 [2]): 47.7 nM

B6
Kd (ASCC2^1-434 [1]): 46500 nM

B7
Kd (ASCC2^1-434 [2]): 3.8 nM

B8
Kd [3]: 3.5 nM

B9
Kd (ASCC2^1-434 [1]): 43800 nM

B10
binding result [4]: binds

B11
binding result [5]: binds

B12
Kd (ASCC2^1-434 [6]): 2000 nM

Source: article PMC7608686, “The interaction of DNA repair factors ASCC2 and ASCC3 is affected by somatic cancer mutations” (Nature Communications, 2020)
